In US20260176701A1 (BRIGHAM AND WOMEN S HOSPITAL, published 2026):

T1: recombinant human ORF1p (LINE-1 open reading frame 1 protein, L1RP) (human, UniProt Q9UN81 1-338)
T1 construct: Expressed in E. coli, tag cleaved, monodisperse homotrimer; Immobilized on the CM5 chip in SPR; also called trimeric ORF1p
T1 sequence: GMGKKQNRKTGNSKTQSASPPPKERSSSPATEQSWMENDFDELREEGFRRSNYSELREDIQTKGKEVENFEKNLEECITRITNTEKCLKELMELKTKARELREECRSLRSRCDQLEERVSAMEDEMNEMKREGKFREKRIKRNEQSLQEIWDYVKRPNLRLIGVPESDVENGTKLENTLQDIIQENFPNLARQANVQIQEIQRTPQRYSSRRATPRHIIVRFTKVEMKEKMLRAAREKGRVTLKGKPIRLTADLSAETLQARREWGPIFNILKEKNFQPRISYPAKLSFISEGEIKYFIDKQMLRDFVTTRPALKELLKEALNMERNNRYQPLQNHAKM

B1: MT1037 (bispecific antibody)
nanobody concatemer: QVQLVESGGDLVQAGGSLRLSCAVSGGTSSNYGMGWFRQAPGKEREFVSSISWSGSRTLYSDSVKGRFTISRDNAKNTVDLQMNSLKPEDTAVYYCTAVREYRDYPQRDNFDYWGQGTQVTVSGGGGSGGGGSGGGGSGGGGSDAAARDAAARDAAARGGGGSGGGGSGGGGSGGGGSGSMAQVHLVESGGKLVQAGESLKLSCEVSGRTFSISGAGWFRQAPGKEREFVAAITWTGGYPYYDASVKGRFTISREDPDNTVYLSMNSLKPEDTAVYYCATRRAGDLDFSYAQQGRYDNWGQGTQVTVSCGSGRCGSGRCGSGRCGSGRC
modifications: biotinylated on the C-terminal cysteine residues when used as detector
notes: also called Nb5-Nb9-7Cys anti-ORF1 Nb dimer 12 (long linker v2); 5-9-cys(long2)
B2: MT1032 (bispecific antibody)
nanobody concatemer: QVQLVESGGDLVQAGGSLRLSCAVSGGTSSNYGMGWFRQAPGKEREFVSSISWSGSRTLYSDSVKGRFTISRDNAKNTVDLQMNSLKPEDTAVYYCTAVREYRDYPQRDNFDYWGQGTQVTVSGGGGSGGGGSGGGGSGGGGSMAQVQLVESGGDLVQAGGSLRLSCAVSGGTSSNYGMGWFRQAPGKEREFVSSISWSGSRTLYSDSVKGRFTISRDNAKNTVDLQMNSLKPEDTAVYYCTAVREYRDYPQRDNFDYWGQGTQVTVSCGSGRCGSGRCGSGRCGSGRC
modifications: biotinylated on the C-terminal cysteine residues when used as detector
notes: also called Nb5-Nb5-7Cys anti-ORF1 Nb dimer 7 (short linker); Nb 5-5-cys (short)
B3: anti-ORF1 Nanobody 1 (Nb1) (VHH)
VHH: DVQLVESGGGLVQAGESLRLSCAASGRTLSSLNMAWFRQVPGKERDFVSLISRSGSTDYVHSVRGRFTISRDNAKNTVYLEMNSLKPEDTAVYYCAADDNYNGRYPFRDEYEYWGQGTQVTVSH
notes: Llama nanobody
B4: MT1036 (other)
nanobody concatemer: DVQLVESGGGLVQAGGSLRLSCAASGRTDDIYTMGWFRQGPGKEREFVAVISWSITRRSSITHYADSVKGRFTISGENAENTVYLQMNTLKPEDTAVYYCAAKTGYSGSMSSYQDYDSWGQGTQVTVSGGGGSGGGGSGGGGSGGGGSDAAARDAAARDAAARGGGGSGGGGSGGGGSGGGGSGSMAQVHLVESGGKLVQAGESLKLSCEVSGRTFSISGAGWFRQAPGKEREFVAAITWTGGYPYYDASVKGRFTISREDPDNTVYLSMNSLKPEDTAVYYCATRRAGDLDFSYAQQGRYDNWGQGTQVTVSCGSGRCGSGRCGSGRCGSGRC
modifications: biotinylated on the C-terminal cysteine residues when used as detector
notes: also called Nb2-Nb9-7Cys anti-ORF1 Nb dimer 11 (long linker v2); 2-9-cys(long2)
B5: MT1035 (bispecific antibody)
nanobody concatemer: QVQLVESGGDLVQAGGSLRLSCAVSGGTSSNYGMGWFRQAPGKEREFVSSISWSGSRTLYSDSVKGRFTISRDNAKNTVDLQMNSLKPEDTAVYYCTAVREYRDYPQRDNFDYWGQGTQVTVSGGGGSGGGGSGGGGSGGGGSDAAARDAAARDAAARGGGGSGGGGSGGGGSGGGGSMAQVQLVESGGDLVQAGGSLRLSCAVSGGTSSNYGMGWFRQAPGKEREFVSSISWSGSRTLYSDSVKGRFTISRDNAKNTVDLQMNSLKPEDTAVYYCTAVREYRDYPQRDNFDYWGQGTQVTVSCGSGRCGSGRCGSGRCGSGRC
modifications: biotinylated on the C-terminal cysteine residues when used as detector
notes: also called Nb5-Nb5-7Cys anti-ORF1 Nb dimer 10 (long linker v2); 5-5-cys(long2)
B6: MT1038 (other)
nanobody concatemer: QVHLVESGGKLVQAGESLKLSCEVSGRTFSISGAGWFRQAPGKEREFVAAITWTGGYPYYDASVKGRFTISREDPDNTVYLSMNSLKPEDTAVYYCATRRAGDLDFSYAQQGRYDNWGQGTQVTVSGGGGSGGGGSGGGGSGGGGSDAAARDAAARDAAARGGGGSGGGGSGGGGSGGGGSGSMAQVHLVESGGKLVQAGESLKLSCEVSGRTFSISGAGWFRQAPGKEREFVAAITWTGGYPYYDASVKGRFTISREDPDNTVYLSMNSLKPEDTAVYYCATRRAGDLDFSYAQQGRYDNWGQGTQVTVSCGSGRCGSGRCGSGRCGSGRC
modifications: biotinylated on the C-terminal cysteine residues when used as detector
notes: also called Nb9-Nb9-7Cys anti-ORF1 Nb dimer 13 (long linker v2); 9-9-cys(long2)
B7: 50E9 (antibody, V domains shown)
VH: QSVEESGGRLVTPGTPLTLTCTVSGFSLSRHYMSWVRQAPGKGLEWIGIIYDDDNRDHASWAKGRFTISRTSTTVDLKITSPTTEDTATYFCARVYASYGYALNLWGQGTLVIVSS
VL: ALVMTQTPPSVSAAVGGTVTINCQASESITNWLAWYQQKPGQPPKLLIYDASKLASGVSSRFSGSGSGTQFTLTISRVQCDDAATYYCQQGYTWNNIDNVFGGGTEVVVK
notes: Rabbit monoclonal antibody; also called 50E9-2
B8: 62H12 (antibody, V domains shown)
VH: QSVKESGGRLVTPGTPLTLICTVSGFSLSRYAVGWVRQAPGKGLEWIGYIWSGGYTDYANWAKGRFTISKTSTTVDLKITSPTTEDTATYFCAREGDSDDYIYLNLWGPGTLVTVSS
VL: ALVMTQTPSSVSAAVGGTVTINCQASESISSYLAWYQQKSGQPPKLLIYRASTLASGVPSRFKGSGSGTEFTLTIGDLECADAATYYCQQGYTSFNVDKAFGGGTEVVVK
notes: Rabbit monoclonal antibody (GenScript MonoRab); also called 62H12-1; 62H2

Experiments:
[1] = molecular target: T1, recombinant human ORF1p (LINE-1 open …); experiment: Simoa sandwich calibration curves, panels titled capture/detector; AEB against recombinant ORF1p (axis 0.001-1000 pg/mL, log-log); dotted line = limit of detection
[2] = molecular target: T1, recombinant human ORF1p (LINE-1 open …); experiment: screen of cloned llama nanobody candidates for binding to ORF1p
[3] = molecular target: T1, recombinant human ORF1p (LINE-1 open …); experiment: ELISA screen of conditioned medium, then modified Simoa with Nb-5 or 4H1 beads and ORF1p
From the text: GenScript's MonoRab™ immunization and B cell cloning platform was used with purified, recombinant human ORF1p trimers. The 50 best-performing clones, determined by ELISA screening of the conditioned cell medium at multiple dilutions, were selected and used in a modified Simoa assay with two different detector beads (Nb-5, which is the C5 nanobody clone described above, or 4H1 (Sigma-Aldrich)). The ten best clones (62H12, 64C6, 33A8, 61A11, 36D12, 34H7, 50E9, 34C5, 55A6, and 42D10) all yielded up to 5-fold higher signal-to-noise than our best existing reagent, Ab6, (FIG. 13A).

[4] = molecular target: T1, recombinant human ORF1p (LINE-1 open …); experiment: Simoa sandwich, recombinant ORF1p at 40 pg/mL in diluent buffer, signal/background heat map; capture on the x axis, detector on the y axis
Protocol: ORF1p Simoa assays. Simoa assays were performed on an HD-X Analyzer (Quanterix Corp.), with all assay reagents and consumables loaded onto the instrument according to the manufacturer's instructions. 250,000 capture beads and 250,000 helper (non-conjugated) beads were used in each Simoa assay. A three-step assay configuration was used for the first- and second-generation assays, consisting of a 15-minute target capture step (incubation of capture beads with 100 μL sample), 5-minute incubation with detector reagent (0.3 μg/mL for both first- and second-generation assays), and 5-minute incubation with streptavidin-β-galactosidase (150 pM for first-generation assay; 300 pM for second-generation assays). The beads were washed with System Wash Buffer 1 (Quanterix Corp.) after each assay step. Upon the final wash cycle, the beads were loaded together with the fluorogenic enzyme substrate resorufin β-D-galactopyranoside into a 216,000-microwell array, which was subsequently sealed with oil. Automated imaging and counting of “on” and “off” wells and calculation of average enzyme per bead (AEB) were performed by the instrument. Calibration curves were fit using a 4PL fit with a 1/y² weighting factor, and the limit of detection (LOD) was determined as three standard deviations above the blank.
Signal/background was also determined for a number of the pairs by Simoa using recombinant ORF1p protein in diluent buffer; the results are shown in FIG. 15. When the rabbit monoclonal antibodies were used as capture and detector, the background was high. The best combinations were the rabbit monoclonal antibodies as capture/Ab6 detector; Nb5-5 capture/rabbit monoclonal antibodies detector; and 4H1 capture/rabbit monoclonal antibody detector pairs.

Binder	binding result [1]	further results
B1	binds	–
B2	binds	–
B3	–	binding result [2]: binds
B4	binds	–
B5	binds	–
B6	binds	–
B7	–	binding result [3]: binds
B8	–	binding result [4]: binds
